Data reported in article PMC5705219, “A map of human PRDM9 binding provides evidence for novel behaviors of PRDM9 and other zinc-finger proteins in meiosis” (eLife, 2017).

Biological target: the molecule itself
Experiment: co-IP; direct competition: HEK293T transfected with three constructs, Human and Chimp prey with the same epitope tag and Human or Chimp bait with the complementary tag; IP against the bait tag, western against the prey tag; both directions of HA/V5 tagging

B1: full-length human PRDM9 (B allele), C-terminally tagged with HA or V5 (natural protein)
chain: not shown
notes: synthetic cDNA of the full-length 2,685 bp transcript with 218 synonymous base changes in the zinc-finger exon; An HA and a V5 version were made; tag cassette is linker-TwinStrep-linker-HA/V5-linker-P2A between PRDM9 and YFP; also called Human-HA; Human-V5; source: HEK293T, transfected (pLENTI CMV/TO Puro DEST, FuGENE-HD), in lysate; not shown: HA or V5, C-terminal, kept
fold pull-down efficiency against Chimp PRDM9 prey on the same Human bait: > 2 fold
